# Assay results: the DeepSol protein solubility set
# Test: soluble on expression in E. coli; label from the status in PepcDB or PDB records
row,Sequence,soluble on expression in E. coli
1,MPKSFYFCKTLERLTLSDKILVDVPCQVSLPSLRELDLFCVVYKDEDSHVKLLSSCPVLKHLKVTRNRRVEDNVRTFRVEVPSLLRLDYKAGMMFREDSDMSDPFLVTDTPNLLSLHIFDTVGYSLSVWYMPHLVTVVTDELFPSEKFMRPLSSVKYLALSPFDTMVPWCDAVNNYSRLVECMIHLSEYDLLESLLVLLSKCSKLKVFLVDSDIPRWNHDPALWNQPSSIPRCLSSHLEIFEWDGYVGREDEKKIIRYILENSKYLKTAGISPNSTFSGEEKQKMEELESMHRTPTSVLLSSARMSFRY,not soluble
2,MKIKPVKVESIENPKRFLNSRLLTKIEVEEAIEKALKQLYINIDYFGEEYPTPATFNNIYKVMDNTEWTNGFWTGCLWLAYEYNQDKKLKNIAHKNVLSFLNRINNRIALDHHDLGFLYTPSCTAEYRINGDVKALEATIKAADKLMERYQEKGGFIQAWGELGYKEHYRLIIDCLLNIQLLFFAYEQTGDEKYRQVAVNHFYASANNVVRDDSSAFHTFYFDPETGEPLKGVTRQGYSDESSWARGQAWGIYGIPLSYRKMKDYQQIILFKGMTNYFLNRLPEDKVSYWDLIFTDGSGQPRDTSATATAVCGIHEMLKYLPEVDPDKETYKYAMHTMLRSLIEQYSNNELIAGRPLLLHGVYSWHSGKGVDEGNIWGDYYYLEALIRFYKDWELYW,soluble
3,MAHHHHHHMMYSKNDEFNVKKEMDMNLKCDNVNLDIWNTSFLNNETLNEDIFIHIGNKLLKMYYTTNHNIPSETLYSLLYEMKNGYNNVPYHNSIHAAMVTHHCNVLVSNLNTANILRDNELGALFVASLGHDIGHFGRTNIFLKNCCNFLSIIYNDKSILENYHCSYLFNILLKDENNIFKNEDPKCLLALRQQIIELILATDMSKHIKILAQFRIKSIKIKSYIEKNIILCLKMIIKAADLSHNCVDWSEHYQWVKRLVNEFYYEGDELFQMGYKINPLFDRNCHNNFIQIQRTFLKELVYPLIISLKTLDNTSITQDMINNVKRNYSKWTKI,soluble
4,MQSVTPTSQYLKALNEGSHQPDDVQKEAVSRLEIIYQELINSRPPAPRTSGLMARVGKLWGKREDTKHTPVRGLYMWGGVGRGKTWLMDLFYQSLPGERKQRLHFHRFMLRVHEELTALQGQTDPLEIIADRFKAETDVLCFDEFFVSDITDAMLLGGLMKALFTRGITLVATSNIPPDELYRNGLQRARFLPAIDAIKQHCDVMNVDAGVDYRLRTLTQAHLWLSPLNDETRAQMDKLWLALAGVKRENSPTLEINHRPLATMGVENQTLAVSFTTLCVDARSQHDYIALSRLFHTVMLFDVPVMTRLMESEARRFIALVDEFYERHVKLVVSAEVPLYEIYQGERLKFEFQRCLSRLQEMQSEEYLKLEHHHHHH,not soluble
5,FHSVLIANVNSGLGELASDADLTQVKGKTLTFGSESSTSGRLMPQYYLEQAGVSLEDFQGEVGFSASHDATIQLVEAGTYDLGMLNEQVWNSRVEAGEVDTNRVNVIWRSPAYYDYHWVISPDVDERYGEG,not soluble
6,MSGVRMIDRWEEDNKMFLRLYIKERVLPTIYGSILGDLVGVPVEFKKRGSFFVEDIIGYGTYNQPAGTWSDDTSLTLCLIENIVEEGTIKSLMEKFVNYQDKGYMTPYGQMFDIGGATAQAIGRFKAGCLPQNCGGQSEYDNGNGAIMRISPLAFLFDNEFDFVKKAEVIKQYTEITHAHPRAIVGSIIYIELLLRLYHNNTLEKSIKDILDLFEENFPKNHIYMDEFKYYKRIFDSNFFNVPEEQILSDGYVVHTLEAAIWCVGNTKNFKEAILKAVNLGGDTDTVGVITGAIAGMYYKMDEIPQDWLNKIAKKQDIDELINKFYKYCADKAVIEKYGSL,not soluble
7,MSLNPFQKIKSAVNKRQRFFINRTLQRKLTNQGMTVISANCVGAFILHDLHQPFNSPFVNLYLSPQDFLRYLQNIDFYLTQPLTFVQTEKSYPVGKLADLEIHFMHYHSEQEANEKWQLRTSRMKLDNLFIMMTDRDGVTEKDIQLFDQLPFKNKVIFTHKPYPAFKSAYYIKGFEKQNQVGDIFEFSGWNGKKYYDQFDYVKWFNHAEGHHHHHH,soluble
8,MGSDKIHHHHHHMVKMRALLSGYYGKGNGGDEALLATLLQMLPSHVTPVVLSGNPEETRDRYNVETYDRMAPLAVLQALRSSDALIWGGGSIIQDVTSTISPFYYGGMMALAQKMGLKTVAWAQGIGPLVRPQTRWLARQTFGNCTKVSVRDRASAALLSDWQIPCIIAPDPVWALESKPVPGLWDLPAPRVAVTLRSHPQLTETRLANLTRALVDFQKATQAFILLLPFQKSEDLSIAEAIQPHLKDVSQILCLEDPQLLKGVFRGVEMAIGMRLHSLIMAAAEGCRCFALSYDPKVNRLMEDLEMPGWDLASLPNDPNLISLTWMEHYANGDPLSPDQIQSLVDRALIHRELLSQAFI,not soluble
9,MGSDKIHHHHHHMGKFDQITYFIAVVEEHGFAAAARKFGVSTAAVSRQIARLEAELKAELLVRTTRKLSLTDIGARYYQQCKKTLLELNEAEIAIANSRNEAVGILNVTSSRYFAMRFLLPYLPEFMELNPKLQIKIELAERFPDLAQENVDVLFGVSMEGPPELVRKRVSTTRYVLCASPDYLAKNGIPKTPSELGKHRYITHSMRNPDNLVTFKDNEQIYVEPVLWLNDSRALCECALLGMGIIKLHEYIVTEALQDGRLIEVLPEFQESSLSVYLYYQASRYLQPKIRRFIDFFTK,not soluble
10,MNSMEHLLKQAIKLRKEKKYAQSKEILIGLTNFTRDAEVLYQCAWIHDVMGLETEAMPYYEQAIANGLEGESLCGAYIGLGSTYRCIGEYDKAITVLETGLQQFPGNDVMKVFLSLAKFNVNDHESAMKLLLETVVKLEHHHHHH,soluble
11,MARAIAIDAPLSAGIRRTKKSPIKRASVGGVKKRFSTGTAGPSRRPTAQPRRQSGGIRTVDRSIPANENREVRINLSNLAHTVHSGDLRQLFAEFKIRNVSVNFNEHGKPVGTGDVTLPKRHADRLIQKFAGVSLDGKEIKFAIIDSANIANRVKFPEAPRRAPSNGRPAQRAPKRQNVKSGKPTGGAGAQKKLKAKKPKREAQPKKTLEELDAELDVYMSKA,not soluble
12,MRPEERRRHILELLRQRERISVDELARTLSTSQETIRRDLAALAEQGLVSKFHGGAALPPSGEHENAFQTRMNEHAQEKRAVARYAAGLFGPGDSIFIDTGTTTLLFARELARQSHLTVITNSLLIAGSVGASGNRAFMIGGEYRPESEQNVGALAIEQIARFNAEHAVITVGALNGDGAMDFSIEEAEIARAMIAQARQLTVIADSSKLGRRALFQVFPLSRINRLVVDRKPTGELWEALQQARVEVHEAPLRTPQALEHHHHHH,not soluble
13,TNADYPALYLANFLLGTSETSRLWHRVRETEGLSYNVRSNLSVSSYEPSANWTIYAIYAPQNRARLEKAISEELARALKDGFTDQEVRDGVVALLNYRNLARAQDDVLADTWVNYMQTGRSFQWSADMDRKLEALTPDQVNAALRKYLKPDAFSTAVAGDFTKKSAP,not soluble
14,MAHHHHHHMNGEVSVERKFSPSQPGYGSEGCRQSMGTTTNNGARRFSATELGRTVGMPYSFDTMRYLKDVMRRREDIHTMRVMPKTHLLAQLVLLEQSGREMLIHQERFCRQQIAHKRDDERSKREEQRLQQKNRDRLEEMKRKQVEELAALKEGVTSFQRQIDAEVKEKLRIVCMLQPRMNVAAAVLAEVKNEASPFLLLPELMEEEKRVAKALKADSRYSKSSADSGAVPHWMRTCVAGSFNVAAILQDAPYRATVDDAVKVTNAFLRKVVVVRDVNDRSVVGWVHVRAGSDPATLATELVRLPAPEELPDQGNIGVVWPKEDFLELSRRAKANNNVETQQLLQSVLGISSASLHCVGLTTHEFSKKEVDTIGSLASV,not soluble
15,MRVLVTGGSGYIGSHTCVQLLQNGHDVIILDNLCNSKRSVLPVIERLGGKHPTFVEGDIRNEALMTEILHDHAIDTVIHFAGLKAVGESVQKPLEYYDNNVNGTLRLISAMRAANVKNFIFSSAATVYGDNPKIPYVESFPTGTPQSPYGKSKLMVEQILTDLQKAQPDWSIALLRYFNPVGAHPSGDMGEDPQGIPNNLMPYIAQVAVGRRDSLAIFGNDYPTEDGTGVRDYIHVMDLADGHVVAMEKLANKPGVHIYNLGAGVGNSVLDVVNAFSKACGKPVNYHFAPRREGDLPAYWADASKADRELNWRVTRTLDEMAQDTWHWQSRHPQGYPD,soluble
16,MEDLLVVGQIINTHGLRGEMKVMPLTEDMRRFDYLEYVILKGKKVKVEGVKYFKDKVILKLEGINSIEEAEKLKRTYLEIEREDAIELEEDEYFIVDLVGCTVVDTEGFEYGKIKDVIQTPSNDVYWVQGKKEVLVPVLKDIVLDINMDEKLITIRPSGEWQYEDLEHHHHHH,not soluble
17,MSDYLSVSSLTKYLKLKFDRDPYLERVYLTGQVSNFRRRPNHQYFSLKDEKAVIQATMWSGIYRKLGFELEEGMKINVIGRVQLYEPSGSYSIIIEKAEPDGIGALAVQFEQLKKKLAEAGYFDDRHKQRLSQFVKKIGVVTSPSGAVIRDIITTVSRRFPGVDILLFPTKVQGEGAAQEVADNIRLANERTDLDLLIVGRGGGSIEDLWAFNEEIVVQAIFESHLPIISSVGHETDTTLADFAADRRAATPTAAAELATPVTKADLLAFLKERQMRSYQAVMRLIRQKDEQVKKLQRSVIFRQPERLYDAYVQKLDHLRTHLLTKVRQVYDVYDSKEHLLRQRLLSFNLSGCIQRYQAQLKQDQRLLLSHMSSQYDSKLARFEKAQDALLSLDTTRIVARGYAIVQKDNHIIQSTQQIKKGDRLHLEMKDGQVQVEVENVKQEENI,not soluble
18,MKKVLIVLLVLLTSFGFSENLDKYESKRVFDKSIQFILDGNYEKLKNDTEMSRVAGNITDAAEAIFAKARPMLKEHKYKVIDVKEKKDISELTVKVEYKVYENVSQEESENFMIKFQEELDEETEEAADIYDKKVQKLLQDNIKSKGIIKDKIIKVYMDKEYGYWDLATDKNEDLLLTLFSVIDSLGLY,not soluble
19,MSLRKRPDSVTPDLLHVDRSAMGPLAERMRPRTLDDMVGQKRLLAPDSALRRAVESGRVHSMILWGPPGCGKTTLALLLAHYADAEFNAISAVLSGLPEVRQVLAEAAQRFAGGRRTVLFVDEVHRFNKAQQDAFLPHIERGTILFVGATTENPSFELNSALLSRCRVHVLEGVSPQDIVEALQRALHDAERGLGQQTIQVSEASLLEIASAADGDVRRALTLLEIAAELATGEGGEITPRTLLQVLADRTRRFDKNGEQFYDQISALHKSVRSSNPDAALYWLTRMLDGGCDPTYLARRLTRMAIEDIGLADPRAQGMALEAWDIYERLGSPEGELAFAQLVLYLASTAKSNAGYAAFNQARAEVRATGTQEVPLHLRNAPTKLMKTLGYGQDYQYDHDAEGGIALDQTGFPDAMGERVYYNPMPRGMEIKLKEKLDRLRETRGQAREGHHHHHH,soluble
20,MGSDKIHHHHHHMTENNGFQQHVAKVYREHRGERIVPFEYQGKRYWLKQVEHLAGAMRLLKQNSTAALHKEIGILNTLSHIGAPVPAVVDYGDGYMVVEDVGNTINHLLDHTSQALWQPILNDVSVALAKLHSMQLAHGRPALRDISWQAGEVKFIDFEANQQHKSVVSQQVRDVLVFIHSLYRYIGPNNRMINQAIACYRLAGGEAIWQKAKQFLASWQWLYYFARPFRDFGGKDLKPVYWVLWHFRQAPLTLA,not soluble
21,MSDLLDTVRGLAKKTDSKILMVVLDGVGGLPLTVNGDTELATARTPNLDALAQESQLGQLELVGAGITPGSGPGHLSLFGYDPLKYVVGRGALSAVGIGVKLNRGDVAVRGNFATLGAGRLILDRRAGRPSDEKNAEIVAKLRAAIPEIDGVAVEVYTESEHRFVVVFRAPEGQPLGANISDVDPQVTGVEPKTAIANDPSSEVTAGLINTFVARAEVALADEPQVNGVLFRGYSDVPHFPSFEDAYQLKAACIASYPMYKGLASLVGMDVLPVEGHEDALEGKVKALRENWAKYDFFYFHIKKTDSTGEDGDFAEKVHKIELFDELLPQLLELQPDVIAVVGDHSTPSKLKSHSWHPVPLLIRSNYGRRDPAQRYTEEEAARGTLGLRHGPDLMPLLMANALKLNKYGALEHHHHHH,soluble
